For the series, the system named is Escherichia coli TOP10. The series can be described thus: shrunken log2 fold change of peptide-encoding DNA abundance (4.5 h post-induction vs induction); higher = less antimicrobial activity (less host growth inhibition). Particulars: time post-induction: 4.5 h; library: site-saturation at positions 5, 18, 19, 20.

These results are taken from the supplement of paper PMC9112550, “Optimization of the antimicrobial peptide Bac7 by deep mutational scanning” (BMC Biology, 2022).
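Further: peptides expressed intracellularly from a pBAD plasmid library in pooled LB shake-flask culture, induced with 0.3% L-arabinose, DNA abundance read by NGS, three biological replicates, DESeq2 with apeglm shrinkage.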

Regarding RRIRERPPRLPRPRPRPMIIPRP, the “shrunken log2 fold change” value was -0.317.
To RRIRIRPPRLPRPRPRPYDPPRP belongs -0.0306; to RRIRGRPPRLPRPRPRPKSFPRP, 0.0944.
Regarding RRIRTRPPRLPRPRPRPNMWPRP, the “shrunken log2 fold change” value is -0.365.
As to RRIRPRPPRLPRPRPRPRFEPRP, the “shrunken log2 fold change” value came out at 0.0793.
In the case of RRIRQRPPRLPRPRPRPTLHPRP, the “shrunken log2 fold change” value is 0.0326.
As to RRIRERPPRLPRPRPRPVSSPRP, the “shrunken log2 fold change” value is -0.215.
In the case of RRIRLRPPRLPRPRPRPLIRPRP, the “shrunken log2 fold change” value was -0.547.
As for RRIRDRPPRLPRPRPRPHTDPRP, the figure is -0.623; as for RRIRERPPRLPRPRPRPTQDPRP, 0.217; as for RRIRRRPPRLPRPRPRPLCAPRP, 0.646.
To RRIRERPPRLPRPRPRPIELPRP belongs -0.163.
To RRIRYRPPRLPRPRPRPSMCPRP belongs -0.24.
RRIRFRPPRLPRPRPRPTFLPRP: the “shrunken log2 fold change” value is -0.452.
To RRIRERPPRLPRPRPRPEDLPRP belongs 0.0648; to RRIRSRPPRLPRPRPRPQMNPRP, -0.227.
To RRIRDRPPRLPRPRPRPNMWPRP belongs -0.152; to RRIRHRPPRLPRPRPRPHPLPRP, -0.0572; to RRIRRRPPRLPRPRPRPNMKPRP, 0.069.
To RRIRQRPPRLPRPRPRPKLSPRP belongs 0.00202; to RRIRNRPPRLPRPRPRPDFMPRP, -0.138.
For the sequence RRIRRRPPRLPRPRPRPCCWPRP, the “shrunken log2 fold change” value is 0.322.
To RRIRRRPPRLPRPRPRPQNLPRP belongs -0.276; to RRIRPRPPRLPRPRPRPYYMPRP, -0.864; to RRIRSRPPRLPRPRPRPPGAPRP, 0.61.
To RRIRFRPPRLPRPRPRPFWMPRP belongs -0.254; to RRIRWRPPRLPRPRPRPDAMPRP, 0.393; to RRIRPRPPRLPRPRPRPPKPPRP, 0.0495.
To RRIRMRPPRLPRPRPRPKLIPRP belongs -0.0987.
Regarding RRIRVRPPRLPRPRPRPQHTPRP, the “shrunken log2 fold change” value was -0.0855.
To RRIRCRPPRLPRPRPRPEHMPRP belongs -0.201; to RRIRWRPPRLPRPRPRPCSHPRP, -0.264.
To RRIRQRPPRLPRPRPRPSGRPRP belongs 0.137; to RRIRHRPPRLPRPRPRPFSVPRP, -1.26.
RRIRSRPPRLPRPRPRPSFEPRP: the “shrunken log2 fold change” value turned out to be 0.0257.
For the sequence RRIRRRPPRLPRPRPRPTDPPRP, the “shrunken log2 fold change” value was 0.246.
As for RRIRGRPPRLPRPRPRPTMIPRP, the figure is 0.0786; as for RRIRMRPPRLPRPRPRPYGSPRP, -0.0489; as for RRIRTRPPRLPRPRPRPFDMPRP, -0.00208.
With RRIRFRPPRLPRPRPRPHRHPRP, the “shrunken log2 fold change” value was -0.333.
As for RRIRLRPPRLPRPRPRPWNCPRP, the “shrunken log2 fold change” value was -0.493.
To RRIRLRPPRLPRPRPRPCLNPRP belongs -0.0428.
As for RRIRARPPRLPRPRPRPVNHPRP, the figure is -0.298; as for RRIRLRPPRLPRPRPRPQYDPRP, -0.155; as for RRIRSRPPRLPRPRPRPVFGPRP, 0.0263.
RRIRKRPPRLPRPRPRPVNAPRP: the “shrunken log2 fold change” value turned out to be 0.025.
To RRIRVRPPRLPRPRPRPDRKPRP belongs 0.0279.
In the case of RRIRHRPPRLPRPRPRPRWIPRP, the “shrunken log2 fold change” value was -0.108.
As for RRIRIRPPRLPRPRPRPKFNPRP, the figure is -1.09; as for RRIRDRPPRLPRPRPRPTCRPRP, 0.175.
In the case of RRIRYRPPRLPRPRPRPPWMPRP, the “shrunken log2 fold change” value is -0.0946.
To RRIRHRPPRLPRPRPRPGTCPRP belongs -0.318.
On to RRIRTRPPRLPRPRPRPDPGPRP, for which the “shrunken log2 fold change” value worked out at 0.0486.
As for RRIRFRPPRLPRPRPRPDRCPRP, the figure is -0.208; as for RRIRKRPPRLPRPRPRPLNYPRP, -0.217.
Turning to RRIRVRPPRLPRPRPRPNCAPRP, the “shrunken log2 fold change” value worked out at 0.289.
To RRIRFRPPRLPRPRPRPCIGPRP belongs -0.1; to RRIRRRPPRLPRPRPRPKKEPRP, -0.0417.
RRIRTRPPRLPRPRPRPGCYPRP: the “shrunken log2 fold change” value is -0.115.
Turning to RRIRQRPPRLPRPRPRPEKSPRP, the “shrunken log2 fold change” value was found to be 0.287.
As for RRIRSRPPRLPRPRPRPQEQPRP, the figure is 0.0984; as for RRIRLRPPRLPRPRPRPCHLPRP, 0.0143.
Turning to RRIRLRPPRLPRPRPRPQVQPRP, the “shrunken log2 fold change” value was -0.0263.
To RRIRLRPPRLPRPRPRPGITPRP belongs -0.322; to RRIRMRPPRLPRPRPRPGKLPRP, 0.515.
To RRIRPRPPRLPRPRPRPRCEPRP belongs 0.809; to RRIRPRPPRLPRPRPRPHWAPRP, -0.0709.
Regarding RRIRIRPPRLPRPRPRPNSQPRP, the “shrunken log2 fold change” value is -0.523.
To RRIRCRPPRLPRPRPRPVGVPRP belongs 0.299.
On to RRIRDRPPRLPRPRPRPQDMPRP, for which the “shrunken log2 fold change” value is -0.628.
As for RRIRHRPPRLPRPRPRPCMLPRP, the figure is -0.151.
As for RRIRERPPRLPRPRPRPNEHPRP, the figure is -0.445; as for RRIRMRPPRLPRPRPRPWRSPRP, 0.166; as for RRIRFRPPRLPRPRPRPLKVPRP, -0.112.
Consider RRIRLRPPRLPRPRPRPCAHPRP, for which the “shrunken log2 fold change” value is -0.417.
As for RRIRVRPPRLPRPRPRPTDNPRP, the figure is -0.363; as for RRIRLRPPRLPRPRPRPCQLPRP, -0.8.
Take RRIRLRPPRLPRPRPRPVVDPRP: the “shrunken log2 fold change” value worked out at 0.117.
For RRIRPRPPRLPRPRPRPKSSPRP, the “shrunken log2 fold change” value was -0.278.
To RRIRMRPPRLPRPRPRPEMQPRP belongs 2.83.
Regarding RRIRYRPPRLPRPRPRPIQSPRP, the “shrunken log2 fold change” value is -0.00206.
As for RRIRHRPPRLPRPRPRPDRIPRP, the figure is -0.495; as for RRIRRRPPRLPRPRPRPWKWPRP, -0.00244.
As for RRIRIRPPRLPRPRPRPNICPRP, the “shrunken log2 fold change” value was -0.147.
For RRIRMRPPRLPRPRPRPMKMPRP, the “shrunken log2 fold change” value is 0.803.
As for RRIRKRPPRLPRPRPRPCVNPRP, the figure is 0.0687.
For the sequence RRIRLRPPRLPRPRPRPWMDPRP, the “shrunken log2 fold change” value worked out at 0.0138.
As for RRIRLRPPRLPRPRPRPFVRPRP, the figure is 0.00108; as for RRIRHRPPRLPRPRPRPPKFPRP, -0.223.
Turning to RRIRTRPPRLPRPRPRPAYVPRP, the “shrunken log2 fold change” value was -0.27.
To RRIRFRPPRLPRPRPRPPISPRP belongs -0.239.
